Where a SMILES comes first, the peptide text is derived from it. Where no end group is shown, it is not given here. [ ]: non-standard residue; d: D form. Tyr(3-I) = N[C@@H](Cc1ccc(O)c(I)c1)C(=O)O; Nle = CCCC[C@H](N)C(=O)O
B1: ILNleRF-NH2 (peptide)
peptide: IL[Nle]RF-NH2
modifications: N-terminus assumed
SMILES: CCCC[C@H](NC(=O)[C@H](CC(C)C)NC(=O)[C@@H](N)[C@@H](C)CC)C(=O)N[C@@H](CCCNC(=N)N)C(=O)N[C@@H](Cc1ccccc1)C(N)=O
notes: synthetic
B2: GNSFLRF-NH2 (peptide)
peptide: GNSFLRF-NH2
notes: also called GNSFLRFamide
B3: KPNFLRF-NH2 (peptide)
peptide: KPNFLRF-NH2
notes: flp1

How the values were obtained:
CEGPCR19.2 = CEGPCR19.2 (Caenorhabditis elegans, UniProt H2KZY4); assay: calcium mobilization assay (FLIPR), transiently transfected CHO cells, CEGPCR19.2; format: cell-based, C. elegans; details: Table 13; peptides at 10 μM
Chain of CEGPCR19.2 (H2KZY4 entry or part of it): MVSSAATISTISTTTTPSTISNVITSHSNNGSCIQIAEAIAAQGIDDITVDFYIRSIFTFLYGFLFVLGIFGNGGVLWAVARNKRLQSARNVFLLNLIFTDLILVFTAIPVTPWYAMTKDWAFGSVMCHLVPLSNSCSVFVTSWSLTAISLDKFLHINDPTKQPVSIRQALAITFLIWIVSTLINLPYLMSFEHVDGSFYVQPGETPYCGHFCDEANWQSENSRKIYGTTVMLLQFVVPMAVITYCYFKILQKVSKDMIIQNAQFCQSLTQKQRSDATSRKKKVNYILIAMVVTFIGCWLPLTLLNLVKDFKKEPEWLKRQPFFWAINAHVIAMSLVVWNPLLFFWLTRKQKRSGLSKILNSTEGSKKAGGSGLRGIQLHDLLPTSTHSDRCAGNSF
Procedure: Changes in intracellular calcium levels are another recognized indicator of […] receptor activity, and such assays can be employed to assay for modulators of GPCR-like receptor activity. For example, CHO cells stably transfected with a GPCR-like receptor expression construct are plated at a density of 4×10^4 cells/well in Packard black-walled 96-well plates specially designed to isolate fluorescent signals to individual wells. The cells are incubated for 60 minutes at 37° C. in modified Dulbecco's PBS (D-PBS), containing 36 mg/L pyruvate and 1 g/L glucose with the addition of 2.5 mM probenecid (Sigma Chemical Co.) and one of four calcium indicator dyes (Fluo3™ AM, Fluo4™ AM, Calcium Green™-1 AM, or Oregon Green™ 488 BAPTA-1 AM) at a concentration of 4 μM. Plates are washed once with modified D-PBS […] 1% fetal bovine serum and incubated for 10 minutes at 37° C. to remove residual dye from the cellular membrane. In addition, a series of washes with modified D-PBS is performed immediately prior to activation of the calcium response.
Calcium response is initiated by the addition of one or more candidate receptor agonist compounds, or a positive control such as a calcium ionophore A23187 (10 μM), or ATP (4 μM). Fluorescence is measured by Molecular Device's FLIPR with an argon laser, excitation at 488 nm. […] Basal fluorescence of cells was measured for 20 seconds prior to addition of agonist, ATP, or A23187, and was subtracted from the response signal. The calcium signal is measured for approximately 200 seconds, taking readings every two seconds. […]
This appears especially useful for the assessment of possible activation of orphan GPCRs (i.e., GPCRs having unknown functions and unknown signaling pathways). […] Because the GTPγS assay is known to poorly recognize GPCRs coupled to the Gq class of G-proteins, a Ca^+2 mobilization assay, based on a FLIPR readout, was used as well to evaluate putative Gq-couplcd orphan GPCRs transiently transfected into CHO cells. […] Without the temperature downshift, expression of functional receptor could not be detected. […]

CEGPCR7 receptor = molecular target: T1, CEGPCR7 receptor (Caenorhabditis elegans, UniProt Q18534); assay: [35S]GTPγS binding assay, membranes of CHO cells transfected with CEGPCR7; format: biochemical, C. elegans
T1 construct: Each of the 22 putative GPCR-like receptor clones appeared to contain a full-length coding region; expressed in transfected cells; host or cells: CHO-K1, transient, pCR3.1 clone, 37 to 28 C temperature shift
T1 sequence (Q18534 1-457): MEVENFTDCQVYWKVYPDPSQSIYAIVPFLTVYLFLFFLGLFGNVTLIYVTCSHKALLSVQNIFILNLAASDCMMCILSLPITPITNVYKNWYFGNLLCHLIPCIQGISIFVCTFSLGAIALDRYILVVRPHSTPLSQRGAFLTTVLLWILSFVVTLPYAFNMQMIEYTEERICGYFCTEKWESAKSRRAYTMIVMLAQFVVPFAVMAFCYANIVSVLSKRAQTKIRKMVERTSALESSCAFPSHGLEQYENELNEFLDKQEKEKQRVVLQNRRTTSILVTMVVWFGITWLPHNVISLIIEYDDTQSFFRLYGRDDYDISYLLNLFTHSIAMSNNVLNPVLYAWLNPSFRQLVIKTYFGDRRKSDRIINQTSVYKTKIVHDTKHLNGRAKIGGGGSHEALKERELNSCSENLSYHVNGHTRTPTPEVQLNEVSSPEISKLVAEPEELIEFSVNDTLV
Procedure: (§1) Recombinant pCR3.1 clones encoding invertebrate GPCR-like receptors were transformed into wild-type CHO-K1 cells and functional expression was achieved using a temperature-shift incubation protocol. The CHO-K1 cells were cultured at 37° C. in a humidified atmosphere of 5% CO2 in air in DMEM medium supplemented with 10% heat-inactivated fetal bovine serum (i.e., FBS), 10 μg/ml gentamicin, and 0.1 mM nonessential amino acids to give complete DMEM medium. Additionally, for incubations at temperatures lower than 37° C., the medium was fortified with 10 mM HEPES (pH 7.4). Cells were transfected with recombinant pCR3.1 clones containing GPCR-like receptor DNAs, using LipofectAMINE PLUS™, essentially according to the manufacturer's instructions. […] In separate plastic tubes, PLUS (20 μl/plate; Life Technologies) was added to 0.75 ml/plate of recombinant plasmid DNA in OptiMEM (5 μg/plate; Gibco/BRL—Life Technologies), mixed and incubated at room temperature for 15 minutes. Separately, LipofectAMINE (30 μl/plate) was mixed with 0.75 ml OptiMEM and added to the pre-complexed DNA/PLUS mixture and incubated at room temperature for 15 minutes. The culture medium was then replaced with serum-free transfection medium (DMEM, 5 ml/plate). The DNA-PLUS-LipofectAMINE complex was then added to the plates (1.5 ml/plate) and mixed gently into the medium, followed by a 3 hour incubation at 37° C. in 5% CO2. At this time, the medium was supplemented with complete DMEM medium containing 20% FBS (6.5 ml/plate) and incubation was continued at 37° C. in 5% CO2. After a total of 24 hours at 37° C. in 5% CO2, the medium was replaced with complete DMEM medium fortified with 10 mM HEPES (10 ml/plate) and the cells were moved to an incubator maintained at 28-30° C. in a humidified atmosphere of 5% CO2 in air. The incubation continued for an additional 24 hours, typically at the lower temperature indicated above. A plasmid encoding Green Fluorescent Protein (i.e., GFP, 4 μg/plate) was used for transient GFP expression in CHO-K1 cells to estimate the transfection yields under the same conditions as used for GPCR-like receptor polynucleotides.
(§2) To assess expression, membranes were prepared from transfected CHO-K1 cells. Transfected cells were washed once with ice-cold Dulbecco's phosphate-buffered saline (i.e., PBS), 5 ml per 10 cm plate, and the cells were scraped into 5 ml of the same buffer. Cell suspensions from multiple plates were combined and centrifuged at 500×g for 10 minutes at 4° C. The cell pellet was reconstituted in ice-cold TEE (25 mM Tris, pH 7.4, 5 mM EGTA, 5 mM EDTA). Convenient aliquots were snap-frozen in liquid nitrogen and stored at −70° C. After thawing, the cells were homogenized and centrifuged at 500×g for 5 minutes at 4° C. to pellet nuclei and unbroken cells. Tile supernatant was centrifuged at 47,000×g for 30 minutes at 4° C. The membrane pellet was washed once with TEE, resuspended in 20 mM HEPES, pH 7.4, 100 mM NaCl, 10 mM MgCl2, 1 mM EDTA (assay buffer), distributed into aliquots of 0.5-1.0 ml, and frozen in liquid nitrogen. Membrane aliquots were stored at −70° C. Membrane protein concentration was determined using the BCA Protein Assay Reagent from Pierce (Rockford, Ill.), with bovine serum albumin (i.e., BSA) as a standard.
Aliquots of cell membranes prepared as described above and stored at −70° C. were thawed, homogenized, and diluted into buffer containing 20 mM HEPES, pH 7.4, 10 mM MgCl2, 1 mM EDTA, and 100 mM NaCl at a concentration of 10-50 μg/ml.

CEGPCR5 = molecular target: T2, CEGPCR5 (Caenorhabditis elegans, UniProt Q18179); assay: [35S]GTPγS binding assay, CEGPCR5 expressed in CHO cells; format: biochemical, C. elegans; details: for EC50: EC50 range
T2 sequence (Q18179 1-402): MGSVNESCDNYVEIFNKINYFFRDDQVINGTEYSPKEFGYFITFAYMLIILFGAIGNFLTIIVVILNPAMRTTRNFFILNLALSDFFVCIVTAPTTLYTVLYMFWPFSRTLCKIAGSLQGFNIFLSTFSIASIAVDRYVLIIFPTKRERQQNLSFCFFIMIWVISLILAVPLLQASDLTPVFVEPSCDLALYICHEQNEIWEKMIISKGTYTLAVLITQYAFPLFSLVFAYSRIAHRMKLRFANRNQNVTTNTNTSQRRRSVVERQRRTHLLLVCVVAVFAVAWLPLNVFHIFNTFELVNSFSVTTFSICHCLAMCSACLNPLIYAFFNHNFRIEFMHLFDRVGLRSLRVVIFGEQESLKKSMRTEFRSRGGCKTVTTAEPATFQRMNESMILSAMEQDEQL
Procedure: as §1, §2
Aliquots of cell membranes prepared as described above and stored at −70° C. were thawed, homogenized, and diluted into buffer containing 20 mM HEPES, pH 7.4, 10 mM MgCl2, 1 mM EDTA, and 100 mM NaCl at a concentration of 10-50 μg/ml. Reaction mixtures were prepared in 96-well polypropylene plate, Nunc. Twenty microliters of a 10× putative modulator compound (including but not limited to potential peptide ligands) solution or a water control (20 μl), 18.2 µM GDP (0.11 ml, 10 μM final concentration), and a membrane preparation were mixed and placed on ice. The modulator/ligand-GDP-membrane mixtures were incubated for 20 minutes at room temperature on a shaking platform and then placed on ice.

CEGPCR4 = molecular target: T3, CEGPCR4 (C. elegans); assay: competition binding assay, CEGPCR4/CHO membranes; IC50 range printed once for block r19-r25
T3 construct: Expressed in CHO cells; also called CEGPCR4 receptor; CEGPCR4/CHO membranes
T3 chain: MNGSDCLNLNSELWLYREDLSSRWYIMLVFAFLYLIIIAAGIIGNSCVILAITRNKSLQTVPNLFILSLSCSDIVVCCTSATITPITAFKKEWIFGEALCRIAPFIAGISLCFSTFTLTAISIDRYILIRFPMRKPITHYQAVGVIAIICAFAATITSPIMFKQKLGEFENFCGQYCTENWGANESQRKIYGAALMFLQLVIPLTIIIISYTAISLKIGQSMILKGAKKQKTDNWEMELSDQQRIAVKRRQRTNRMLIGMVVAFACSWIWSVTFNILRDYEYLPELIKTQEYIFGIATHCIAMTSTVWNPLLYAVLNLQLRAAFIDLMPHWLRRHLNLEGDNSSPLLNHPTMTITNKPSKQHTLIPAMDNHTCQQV

Molecule | activity at single concentration (CEGPCR19.2) | binding result (CEGPCR4) | further results
SQPNFLRF-NH2 | peptides active |  | 
KPNFIRF-NH2 | peptides active |  | 
LQPNFLRF-NH2 | peptides active |  | 
CC(C)C[C@H](NC(=O)CNC(=O)[C@@H](N)Cc1ccc(O)c(I)c1)C(=O)NCC(=O)N1CCC[C@H]1C(=O)N[C@@H](CCCNC(=N)N)C(=O)N1CCC[C@H]1C(=O)N[C@@H](CC(C)C)C(=O)N[C@@H](CCCNC(=N)N)C(=O)N[C@@H](Cc1ccccc1)C(N)=O [[I]Y^0-GLGPRPLRF-NH2] (H-[Tyr(3-I)]GLGPRPLRF-NH2) |  |  | EC50 (CEGPCR7 receptor; EC50, single values): 0.237 µM; EC50 (CEGPCR7 receptor; EC50 range, Table 7, one range for the group of peptides): 0.2 to 0.25 µM; EC50 (CEGPCR5): 0.176 to 0.273 µM; EC50 (CEGPCR5; Table 9, one range for the group of peptides): 0.08 to 0.8 µM; less potent than AF9 (CEGPCR5; ratio of potency): about 200 fold
B1 |  | binds | 
B2 |  | binds | 
B3 |  | binds | 

Reference: patent US6632621B1, “G protein-coupled receptor-like receptors and modulators thereof” (priority 1999, dated 2003)
